These results are taken from PMC7110113, “Termination of non‐coding transcription in yeast relies on both an RNA Pol II CTD interaction domain and a CTD‐mimicking region in Sen1” (The EMBO Journal, 2020).

Ends that are not written are not given here. FAM = 5,6-carboxyfluorescein

What all share (experiment): fluorescence polarisation; fluorescence anisotropy, equilibrium binding of Nrd1 CID variants to FAM-labelled NIM peptides; 10°C, 50 mM Na2HPO4, 100 mM NaCl, pH 8; 1:1 model with non-specific binding (DynaFit)
Details in all cases: both partners purified
In general terms: In fluorescence polarisation assays a small probe gives low polarisation when free and higher when bound to something large.

The target of experiment [1] is T1, Nrd1 CID R133A (S. cerevisiae, UniProt P53617 1-153, R133A).
T1 construct: the construct for anisotropy is made as described previously (Kubicek et al, 2012); also called CID(R133A)-His6; source: recombinant, produced and purified as described previously (Kubicek et al, 2012); plasmid with T7 promoter
T1 sequence (looked up): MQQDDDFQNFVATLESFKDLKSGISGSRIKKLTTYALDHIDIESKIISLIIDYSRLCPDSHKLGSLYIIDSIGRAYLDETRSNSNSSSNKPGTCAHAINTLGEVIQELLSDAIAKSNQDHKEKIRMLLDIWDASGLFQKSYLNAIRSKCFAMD

For experiment [2], the target named is T2, Nrd1 CID K21D (S. cerevisiae, UniProt P53617 1-153, K21D).
T2 construct: the construct for anisotropy is made as described previously (Kubicek et al, 2012); also called CID(K21D)-His6; source: recombinant, produced and purified as described previously (Kubicek et al, 2012); plasmid with T7 promoter
T2 sequence (looked up): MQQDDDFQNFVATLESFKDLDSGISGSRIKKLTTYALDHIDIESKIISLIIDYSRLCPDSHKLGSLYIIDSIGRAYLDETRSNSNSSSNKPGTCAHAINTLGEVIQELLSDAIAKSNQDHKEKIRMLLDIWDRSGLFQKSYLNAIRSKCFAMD

Experiment [3] addresses T3, Nrd1 CID L20D (S. cerevisiae, UniProt P53617 1-153, L20D).
T3 construct: the construct for anisotropy is made as described previously (Kubicek et al, 2012); also called CID(L20D)-His6; source: recombinant, produced and purified as described previously (Kubicek et al, 2012); plasmid with T7 promoter
T3 sequence (looked up): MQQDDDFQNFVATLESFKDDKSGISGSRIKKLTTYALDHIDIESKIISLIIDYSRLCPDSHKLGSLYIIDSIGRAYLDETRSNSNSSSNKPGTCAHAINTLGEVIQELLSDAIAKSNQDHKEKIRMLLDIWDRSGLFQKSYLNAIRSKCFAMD

Experiment [4] deals with T4, Nrd1 CID I130K (S. cerevisiae, UniProt P53617 1-153, I130K).
T4 construct: the construct for anisotropy is made as described previously (Kubicek et al, 2012); also called CID(I130K)-His6; source: recombinant, produced and purified as described previously (Kubicek et al, 2012); plasmid with T7 promoter
T4 sequence (looked up): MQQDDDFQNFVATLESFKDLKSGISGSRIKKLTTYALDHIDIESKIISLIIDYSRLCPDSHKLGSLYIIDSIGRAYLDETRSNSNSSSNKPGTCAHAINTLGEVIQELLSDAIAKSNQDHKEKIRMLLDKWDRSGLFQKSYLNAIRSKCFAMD

Experiment [5] has as its target T5, Nrd1 CID M126A (S. cerevisiae, UniProt P53617 1-153, M126A).
T5 construct: source: recombinant, produced and purified as described previously (Kubicek et al, 2012)
T5 sequence (looked up): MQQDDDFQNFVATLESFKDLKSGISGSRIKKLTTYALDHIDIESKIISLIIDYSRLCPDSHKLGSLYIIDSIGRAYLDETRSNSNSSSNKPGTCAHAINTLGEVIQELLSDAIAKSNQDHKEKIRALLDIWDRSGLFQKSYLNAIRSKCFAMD

In experiment [6] the target is T6, Nrd1 CID R133G (S. cerevisiae, UniProt P53617 1-153, R133G).
T6 construct: the construct for anisotropy is made as described previously (Kubicek et al, 2012); also called CID(R133G)-His6; source: recombinant, produced and purified as described previously (Kubicek et al, 2012); plasmid made with QuikChange, T7 promoter
T6 sequence (looked up): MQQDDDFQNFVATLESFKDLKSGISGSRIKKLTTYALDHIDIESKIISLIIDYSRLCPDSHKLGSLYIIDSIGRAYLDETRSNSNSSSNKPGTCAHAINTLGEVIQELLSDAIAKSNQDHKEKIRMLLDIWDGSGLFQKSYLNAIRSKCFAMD

In experiment [7] the target is T7, Nrd1 CID R133D (S. cerevisiae, UniProt P53617 1-153, R133D).
T7 construct: the construct for anisotropy is made as described previously (Kubicek et al, 2012); also called CID(R133D)-His6; source: recombinant, produced and purified as described previously (Kubicek et al, 2012); plasmid made with QuikChange, T7 promoter
T7 sequence (looked up): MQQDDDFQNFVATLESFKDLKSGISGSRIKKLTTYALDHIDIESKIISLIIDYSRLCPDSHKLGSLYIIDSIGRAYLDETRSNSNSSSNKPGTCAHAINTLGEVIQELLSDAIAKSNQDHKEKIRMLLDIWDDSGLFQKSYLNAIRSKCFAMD

B1: Sen1 NIM peptide (Sen1 aa 2,052-2,063) (peptide, UniProt Q00416 2052-2063, looked up)
peptide: {FAM}-DDDEDDYTPSIS
notes: Sen1, S. cerevisiae, fragment harbouring aa 2,052-2,063; source: synthetic peptide
Regarding B1, the equilibrium dissociation constant (Kd) (usually the free concentration of one partner at which half of the binding sites on the other are occupied at equilibrium, for simple one-to-one binding) is 1800 ± 80 nM in experiment [1]; 8000 ± 800 nM in experiment [2]; 16900 ± 1500 nM in experiment [3]; 36700 ± 4600 nM in experiment [4]; 1400 ± 70 nM in experiment [5]; 1600 ± 40 nM in experiment [6]. In addition, the equilibrium dissociation constant (Kd) in experiment [7] was found to be 2000 ± 100 nM.
